Assay results: article PMC4775355 (Cancer research, 2016)

Target: the molecule itself
Test: cross-linking

B1: Flag-PKM2 Y148F mutant (PKM2^Y148F) (enzyme)
chain: not shown
Q: How did the “stoichiometry N” value turn out when B1 was run?
A: 4
